Test results as given in paper PMC8748450, “Aminoacyl chain translocation catalysed by a type II thioesterase domain in an unusual non-ribosomal peptide synthetase” (Nature Communications, 2022).

Key:
Details in all cases: both partners purified
[1] = biological target: T1, apo-LgnD (NRPS subunit, C1-T1-C2-A2-T2-TE); assay: ITC; LgnA (125 µM) titrated into LgnD or truncated LgnD (25 µM), also into LgnB (concentrations for LgnB not told); thirteen 3 µL injections, 25 °C; one set binding model; MicroCal PEAQ-ITC
T1 construct: LgnD, NRPS subunit with domains C1-T1-C2-A2-T2-TE, encoded by lgnD of the legonmycin (lgn) biosynthetic gene cluster, amplified from cosmid 7G1; about 207 kDa; apo form (no phosphopantetheine); Cloned into NdeI/XhoI of pEHISTEVa; MA37; also called full-length LgnD; source: E. coli BL21-CodonPlus (DE3)-RP, purified (Ni-NTA; gel filtration on Superdex 75 for ITC)

[2] = biological target: T2, apo-LgnB-A1-T0 didomain (NRPS subunit LgnB) (RED-tris-NTA label (in the MST experiment only)); assay: MST; LgnB labelled with RED-tris-NTA, 25 nM, as target; LgnA as ligand, 10 to 0.000305 µM; HBS-ET (10 mM HEPES, 150 mM NaCl, 3 mM EDTA, 0.005% Tween-20, pH 8.0); 25 °C; Monolith NT.115
T2 construct: LgnB, NRPS subunit with domains A1-T0, encoded by lgnB of the legonmycin (lgn) biosynthetic gene cluster, amplified from cosmid 7G1; about 65 kDa; apo form (no phosphopantetheine); Cloned into EcoRI/HindIII of pET-28a(+); MA37; source: E. coli BL21-CodonPlus (DE3)-RP, purified (Ni-NTA; gel filtration on Superdex 75 for ITC); not shown: His6, N-terminal, kept

[3] = biological target: T3, apo-LgnD-C1-T1 didomain (truncated LgnD); assay: ITC; LgnA (125 µM) titrated into LgnD or truncated LgnD (25 µM), also into LgnB (concentrations for LgnB not told); thirteen 3 µL injections, 25 °C; one set binding model; MicroCal PEAQ-ITC
T3 chain: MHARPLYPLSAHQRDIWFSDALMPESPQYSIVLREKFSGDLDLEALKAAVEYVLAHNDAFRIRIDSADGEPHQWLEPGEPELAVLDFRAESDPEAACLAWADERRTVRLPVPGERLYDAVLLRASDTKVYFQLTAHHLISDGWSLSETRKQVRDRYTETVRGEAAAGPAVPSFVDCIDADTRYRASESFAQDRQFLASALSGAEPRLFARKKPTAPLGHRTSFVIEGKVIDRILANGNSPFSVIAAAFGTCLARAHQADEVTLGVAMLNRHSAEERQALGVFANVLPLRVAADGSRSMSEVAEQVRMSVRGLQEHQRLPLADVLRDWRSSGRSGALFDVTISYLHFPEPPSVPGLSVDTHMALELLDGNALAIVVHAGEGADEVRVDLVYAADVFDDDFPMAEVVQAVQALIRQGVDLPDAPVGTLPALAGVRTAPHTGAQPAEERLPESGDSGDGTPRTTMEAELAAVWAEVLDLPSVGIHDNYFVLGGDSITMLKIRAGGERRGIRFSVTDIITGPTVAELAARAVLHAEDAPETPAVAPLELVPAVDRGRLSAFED

[4] = biological target: T4, LgnD-T1 domain (truncated LgnD); assay: as above
T4 chain: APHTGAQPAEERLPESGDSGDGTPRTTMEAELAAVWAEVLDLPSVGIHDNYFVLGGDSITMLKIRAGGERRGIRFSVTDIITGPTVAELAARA

T2 sequence (main, as listed by the source): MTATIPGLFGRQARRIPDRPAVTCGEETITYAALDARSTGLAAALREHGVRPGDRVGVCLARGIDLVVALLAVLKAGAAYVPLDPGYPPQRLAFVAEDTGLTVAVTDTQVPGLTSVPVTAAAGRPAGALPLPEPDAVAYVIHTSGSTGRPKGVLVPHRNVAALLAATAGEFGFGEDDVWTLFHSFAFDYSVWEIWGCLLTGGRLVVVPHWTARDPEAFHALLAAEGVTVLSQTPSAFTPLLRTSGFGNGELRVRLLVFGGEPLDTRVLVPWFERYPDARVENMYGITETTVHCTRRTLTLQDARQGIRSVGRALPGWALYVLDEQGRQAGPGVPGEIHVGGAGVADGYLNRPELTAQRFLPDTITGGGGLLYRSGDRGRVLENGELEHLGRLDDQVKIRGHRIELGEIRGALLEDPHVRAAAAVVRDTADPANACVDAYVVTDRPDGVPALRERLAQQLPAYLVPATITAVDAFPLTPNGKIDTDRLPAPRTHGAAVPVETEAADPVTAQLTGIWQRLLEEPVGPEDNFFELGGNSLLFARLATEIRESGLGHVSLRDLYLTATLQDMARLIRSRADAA

B1: LgnA, type II thioesterase (TEII) orthologue (enzyme)
chain: MPVTLLCIPYAGAGASLFRRWKRHPFQHMDVAAVQLPGREELFADGPCTSMSELVDLCAGHIRELPQDAPFALFGHSFGALVAYETAQRLAAEGLRLPERLIVSGAAAPWLPRPVTDADSLSDDQFVARVRDVVGYDHPALHDAELRGLLLPSLRADLSISDRYAPGSTDPLPVPLTVLRGSDDRLVSRQDVELWAKAASQPTELIELPGDHMYFSLDPKPLLAELDAVFARSAA
Kd [1]: 2550 ± 96 nM | Kd [2]: 1700 ± 813 nM

B2: LgnA, type II thioesterase (TEII) orthologue (enzyme)
chain: B1 chain
modifications: apo form (no phosphopantetheine on Ser492)
Kd [3]: 1010 ± 227 nM

B3: LgnA, type II thioesterase (TEII) orthologue (enzyme)
chain: B1 chain
modifications: apo form (no phosphopantetheine on Ser492 of LgnD); limits from primers 28a-LgnD_T1-F/R
Kd [4]: 7.21 ± 1.61 µM
